Laboratory results from paper PMC2910870.

Key:
Experiment in all cases: SPR
[1] = target: NL1Δ (rat neuroligin 1 cholinesterase-like region, without inserts A and B) (rat)
[2] = target: NL1A (rat neuroligin 1 cholinesterase-like region, with insert A, without insert B) (rat)
[3] = target: NL3Δ (rat neuroligin 3 cholinesterase-like region, without inserts A1 and A2) (rat)
[4] = target: NL3A1 (rat neuroligin 3 cholinesterase-like region, with insert A1, without insert A2) (rat)
[5] = target: NL3A1A2 (rat neuroligin 3 cholinesterase-like region, with inserts A1 and A2) (rat) (UniProt Q62889)
[6] = target: NL2A (rat neuroligin 2 cholinesterase-like region, with insert A) (rat) (UniProt Q62888)
[7] = target: NL3A2 (rat neuroligin 3 cholinesterase-like region, with insert A2, without insert A1) (rat)
[8] = target: NL2Δ (rat neuroligin 2 cholinesterase-like region, without insert A) (rat)
[9] = target: NL1B (rat neuroligin 1 cholinesterase-like region, with insert B, without insert A) (rat)
[10] = target: NL1AB (rat neuroligin 1 cholinesterase-like region, with inserts A and B) (rat) (UniProt Q62765)

Chain of β-NRX2+4 (rat β-neurexin 2 LNS domain, with splice insert 4) (Q63376 87-290): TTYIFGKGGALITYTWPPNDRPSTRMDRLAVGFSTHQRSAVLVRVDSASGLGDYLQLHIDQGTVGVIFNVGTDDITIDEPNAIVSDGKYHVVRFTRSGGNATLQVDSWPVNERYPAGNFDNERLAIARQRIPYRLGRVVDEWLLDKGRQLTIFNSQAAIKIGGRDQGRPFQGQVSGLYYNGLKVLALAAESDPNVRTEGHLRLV
Chain of β-NRX1+4 (mouse β-neurexin 1 LNS domain, with splice insert 4) (P0DI97 86-288): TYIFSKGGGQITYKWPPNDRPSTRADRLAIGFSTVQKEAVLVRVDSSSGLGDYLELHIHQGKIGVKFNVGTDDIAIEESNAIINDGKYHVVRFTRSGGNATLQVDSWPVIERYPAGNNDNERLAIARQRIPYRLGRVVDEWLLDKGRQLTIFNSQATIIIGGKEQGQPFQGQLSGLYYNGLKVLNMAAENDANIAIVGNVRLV

In the case of “β-NRX3Δ4 (mouse β-neurexin 3 LNS domain, lacking splice insert 4) (domain or fragment)”, the Kd [1] is reported as 1.02 µM, the Kd [2] is reported as 0.782 µM and the Kd [3] is reported as 10.1 µM. It also gave a Kd [4] of 6.26 µM, a Kd [5] of 10.9 µM and a Kd [6] of 0.369 µM. It also gave a Kd [7] of 11.2 µM and a Kd [8] of 0.418 µM.

In the case of “β-NRX1+4 (mouse β-neurexin 1 LNS domain, with splice insert 4) (from UniProt P0DI97 86-288) (domain or fragment)”, the Kd [1] is reported as 1.54 µM, the Kd [2] is reported as 2.1 µM and the Kd [3] is reported as 23.8 µM. It also gave a Kd [4] of 12 µM, a Kd [9] of 2.75 µM and a Kd [7] of 21.9 µM. The Kd [8] was 3.52 µM.

For “β-NRX2+4 (rat β-neurexin 2 LNS domain, with splice insert 4) (from UniProt Q63376 87-290) (domain or fragment)”, the Kd [1] was 3.77 µM, the Kd [2] was 3.32 µM and the Kd [3] was 56.8 µM. For the same substance, the Kd [4] was 20.5 µM, the Kd [9] was 5.48 µM and the Kd [7] was 42.2 µM. It also gave a Kd [8] of 3.39 µM.

“β-NRX1Δ4 (mouse β-neurexin 1 LNS domain, lacking splice insert 4) (domain or fragment)” showed a Kd [1] of 0.828 µM, a Kd [2] of 0.845 µM and a Kd [3] of 8.17 µM. It also gave a Kd [4] of 7.45 µM, a Kd [9] of 1.16 µM and a Kd [5] of 6.57 µM. The Kd [7] was 7.15 µM, the Kd [8] was 0.964 µM and the Kd [10] was 1.21 µM.

For “β-NRX3+4 (mouse β-neurexin 3 LNS domain, with splice insert 4) (domain or fragment)”, the Kd [1] was 0.332 µM, the Kd [2] was 0.246 µM and the Kd [3] was 9.73 µM. The Kd [4] was 4.32 µM, the Kd [9] was 0.365 µM and the Kd [5] was 9.39 µM. For the same substance, the Kd [6] was 0.239 µM, the Kd [8] was 0.262 µM and the Kd [10] was 0.393 µM.

For “β-NRX2Δ4 (rat β-neurexin 2 LNS domain, lacking splice insert 4) (domain or fragment)”, the Kd [1] was 0.917 µM, the Kd [2] was 1.47 µM and the Kd [3] was 16.5 µM. For the same substance, the Kd [4] was 9.05 µM, the Kd [9] was 2.21 µM and the Kd [5] was 15.3 µM. It also gave a Kd [8] of 0.706 µM and a Kd [10] of 2.29 µM.
